Measured values reported in patent US20220143136A1, “USE OF ANNEXINS IN PREVENTING AND TREATING MUSCLE MEMBRANE INJURY” (NORTHWESTERN UNIVERSITY, priority 2018, published 2022).
Entries after “also recorded” stand apart in the source; their conditions may differ. Like-named read-outs stand apart in the source and are kept apart here.

B1: annexin A6: annexin A6 with carboxyl-terminal turboGFP or tdTomato tag, expressed from plasmid electroporated into myofibers (protein, UniProt P14824 2-673, looked up)
Annexin A6: AKIAQGAMYRGSVHDFPEFDANQDAEALYTAMKGFGSDKESILELITSRSNKQRQEICQNYKSLYGKDLIEDLKYELTGKFERLIVNLMRPLAYCDAKEIKDAISGVGTDEKCLIEILASRTNEQMHQLVAAYKDAYERDLESDIIGDTSGHFQKMLVVLLQGTRENDDVVSEDLVQQDVQDLYEAGELKWGTDEAQFIYILGNRSKQHLRLVFDEYLKTTGKPIEASIRGELSGDFEKLMLAVVKCIRSTPEYFAERLFKAMKGLGTRDNTLIRIMVSRSELDMLDIREIFRTKYEKSLYSMIKNDTSGEYKKALLKLCGGDDDAAGQFFPEAAQVAYQMWELSAVSRVELKGTVCAANDFNPDADAKALRKAMKGIGTDEATIIDIVTHRSNAQRQQIRQTFKSHFGRDLMADLKSEISGDLARLILGLMMPPAHYDAKQLKKAMEGAGTDEKTLIEILATRTNAEIRAINEAYKEDYHKSLEDALSSDTSGHFRRILISLATGNREEGGENRDQAQEDAQVAAEILEIADTPSGDKTSLETRFMTVLCTRSYPHLRRVFQEFIKKTNYDIEHVIKKEMSGDVKDAFVAIVQSVKNKPLFFADKLYKSMKGAGTDEKTLTRVMVSRSEIDLLNIRREFIEKYDKSLHQAIEGDTSGDFMKALLALCGGED
modifications: C-terminal turboGFP or tdTomato tag
notes: annexin A6 with carboxyl-terminal turboGFP or tdTomato tag, expressed from plasmid electroporated into myofibers
B2: recombinant annexin A6: recombinant human annexin A6 protein with C-terminal HIS tag (5186-A6-050, R&D systems); mouse protein from Northwestern core in one cohort (protein, UniProt P08133 2-673, looked up)
Annexin A6: AKPAQGAKYRGSIHDFPGFDPNQDAEALYTAMKGFGSDKEAILDIITSRSNRQRQEVCQSYKSLYGKDLIADLKYELTGKFERLIVGLMRPPAYCDAKEIKDAISGIGTDEKCLIEILASRTNEQMHQLVAAYKDAYERDLEADIIGDTSGHFQKMLVVLLQGTREEDDVVSEDLVQQDVQDLYEAGELKWGTDEAQFIYILGNRSKQHLRLVFDEYLKTTGKPIEASIRGELSGDFEKLMLAVVKCIRSTPEYFAERLFKAMKGLGTRDNTLIRIMVSRSELDMLDIREIFRTKYEKSLYSMIKNDTSGEYKKTLLKLSGGDDDAAGQFFPEAAQVAYQMWELSAVARVELKGTVRPANDFNPDADAKALRKAMKGLGTDEDTIIDIITHRSNVQRQQIRQTFKSHFGRDLMTDLKSEISGDLARLILGLMMPPAHYDAKQLKKAMEGAGTDEKALIEILATRTNAEIRAINEAYKEDYHKSLEDALSSDTSGHFRRILISLATGHREEGGENLDQAREDAQVAAEILEIADTPSGDKTSLETRFMTILCTRSYPHLRRVFQEFIKMTNYDVEHTIKKEMSGDVRDAFVAIVQSVKNKPLFFADKLYKSMKGAGTDEKTLTRIMVSRSEIDLLNIRREFIEKYDKSLHQAIEGDTSGDFLKALLALCGGED
modifications: C-terminal His tag
notes: recombinant human annexin A6 protein with C-terminal HIS tag (5186-A6-050, R&D systems); mouse protein from Northwestern core in one cohort

Experiments:
Isolated FDB fibers = test: Single cell Ca2+ and shortening measurements; type: cell-based, mouse; settings: annexin A6 overexpression vs control fibers
Procedure: Single cell Ca^2+ and shortening measurements. Isolated FDB fibers were plated on laminin coated glass-bottomed 35 mm dishes for one hour and then cultured overnight in DMEM with 10% FBS and 1% penicillin/streptomycin at 37° C. in a 10% CO2 incubator. One hour prior to data acquisition, the medium was removed and cells were incubated in Tyrode buffer (119 mM NaCl, 5 mM KCl, 25 mM HEPES, 2 mM CaCl2, 2 mM MgCl2) with 10 μM Indo-1 AM (TefLabs) for 1 hour at 37° C. in a 10% CO2 incubator. Dishes were then filled with Tyrode buffer, mounted on a custom stage and platinum pacing electrodes were inserted into the dish. Stimulation was elicited using a 701C high-powered stimulator controlled by the 950A software (Aurora Scientific). Stimulation was performed at 40 and 80 Hz, 5 ms pulse width, 100 ms duration. Ratiometric Ca^2+ signals were collected with two photomultiplier tubes and a FluoroDaq controller. Video sarcomere length was recorded with a high-speed camera and fast Fourier transform using the Aurora Scientific 900B-VSL system (Aurora, Ontario). Ten transients were collected over 20 seconds and averaged together per cell per frequency.

mdx/hLTBP4 myofibers = test: Laser-induced membrane injury, FM 4-64 dye uptake, dystrophic myofibers; type: cell-based, mouse; settings: 25 μg/ml extracellular recombinant protein vs vehicle control, dystrophic (DMD model) myofibers
Procedure: For recombinant myofibers studies, myofibers were isolated from mdx/hLTBP4 mice as described above. Myofibers were incubated in Ringer's media with or without 25 μg/ml recombinant annexin A6 (5186-A6-050, R&D systems). FM 4-64 ([…]) was added to the myofibers just prior to imaging. Images were acquired and quantitated as described above. FM 4-64 area was measured using FIJI at imaging endpoint from a single slice near the middle of the z-stack. Z-stack step size (0.125 μm) was acquired from cap end to end.
Multiphoton laser injury and imaging. Fibers were subjected to laser-induced damage at room temperature using the Nikon A1R-MP multiphoton microscope. Imaging was performed using a 25×1.1 NA objective directed by the NIS-Elements AR imaging software. Green fluorescence protein (GFP) and FM 4-64 were excited using a 920 nm wavelength laser and emission wavelengths of 575 nm and 629 nm were collected respectively. To induce laser damage on isolated myofibers, a diffraction limited spot (diameter approximately 410 nm) was created on the lateral membrane of the myofiber using a 920 nm wavelength laser at 10-15% laser power for 1 second. […]
Multiphoton laser injury and imaging. […] Green fluorescence protein (GFP) and FM 4-64 were excited using a 920 nm wavelength laser and emission wavelengths of 575 nm and 629 nm were collected respectively. […]

Sgcg-null mice = settings: 1 mg/kg, 5 injections over 48 hours, 60 minutes downhill running, vs BSA control
Procedure: Serum collection and CK analysis. Mice were sedated (3% isoflurane, 0.8 l/min O2) and blood was collected by means of retro-orbital puncture with heparinized capillary tubes (20-362-566; Fisher Scientific, Waltham, Mass.) into Microtainer™ Gold Top Serum Separator (365967 Becton Dickinson, Franklin Lakes, N.J.) and centrifuged at 8,000×g for 10 minutes. The plasma fractions were frozen and stored at −80° C. Serum creatine kinase (CK) was analyzed in duplicate for each mouse using the EnzyChrom Creatine Kinase Assay (ECPK-100; BioAssay Systems, Hayward, Calif.) following manufacturer's instructions as described (Demonbreun A R, Allen M V, Warner J L, Barefield D Y, Krishnan S, Swanson K E, et al. Enhanced Muscular Dystrophy from Loss of Dysferlin Is Accompanied by Impaired Annexin A6 Translocation after Sarcolemmal Disruption. Am J Pathol. 2016; 186(6):1610-22). Results were acquired with the Synergy HTX multi-mode plate reader (BioTek®, Winooski, Vt.).
Sgcg-null mice were sedated (3% isoflurane, 0.8 l/min O2) and pre-exercise blood was collected by means of left retro-orbital puncture as described above. While sedated, mice were then injected 1 mg/kg recombinant annexin A6 (5186-A6-050, R&D systems) or PBS+1 mg/kg BSA into the right retro-orbital cavity at 9 am and 5 μm for 5 consecutive injection over 48 hours. […] Serum creatine kinase (CK) was analyzed as described above. […]

Anxa6^em1(GFP) myofibers = test: Laser injury of Anxa6em1(GFP) myofibers pretreated with recombinant annexin A6; type: cell-based, mouse; settings: 10-40 μg/ml recombinant protein pretreatment vs control
Procedure: Myofiber isolation. Flexor digitorum brevis (FDB) fibers were isolated with methods that were described previously in (Demonbreun and McNally, 2015; Demonbreun et al., 2016b; DiFranco et al., 2009). Briefly, fibers were dissociated in 0.2% BSA plus collagenase type II (Cat #17101, Thermo Fisher Scientific, Waltham, Mass.) for 60 minutes at 37 degrees in 10% CO2. Fibers were then moved to Ringers solution and placed on MatTek confocal microscopy dishes (Cat #P35G-1.5-14-C, MatTek, Ashland Mass.).
Multiphoton laser injury and imaging. Isolated fibers were subjected to laser-induced damage at room temperature using the Nikon A1R-MP multiphoton microscope. Imaging was performed using a 25×1.1 NA objective directed by the NIS-Elements AR imaging software. Green fluorescence protein (GFP) and FM 4-64 were excited using a 920 nm wavelength laser and emission wavelengths of 575 nm and 629 nm were collected respectively. […] Fluorescence intensity and cap area were measured using Fiji (NIH).
For recombinant protein studies, myofibers were isolated from mice as described above. […] Cap size was assessed from acquired images in FIJI. […] Images were acquired and quantitated as described above. FM 4-64 fluorescence at endpoint was measured using FIJI.

Row | Molecule | Ca2+ cycling (Indo-1) (Isolated FDB fibers; 40 or 80 Hz stimulation) | unloaded cell shortening (Isolated FDB fibers) | FM 4-64 fluorescence / dye uptake after laser injury (mdx/hLTBP4 myofibers) | FM 4-64 fluorescence / dye uptake after laser injury (mdx/hLTBP4 myofibers; listed as rANXA6) | fold change in serum CK post/pre running (Sgcg-null mice) | fold change in serum CK post/pre running (Sgcg-null mice; listed as rANXA6) | FM 4-64 dye uptake (Anxa6^em1(GFP) myofibers) | annexin A6GFP repair cap size (Anxa6^em1(GFP) myofibers)
1 | B1 | no differences | unaffected |  |  |  |  |  | 
2 | B2 |  |  | reduced | significantly smaller; also recorded: significantly less | reduced | significantly reduced | reduction | smaller; also recorded: reduced
